This note sets out measurements from patent publication US20220363752A1 (VERSEAU THERAPEUTICS, published 2022).

Primed or numbered codes have the meaning given here. Biotin′ = not defined here

Assay [1] concerns the target T1, LRRC25(21-40) biotin peptide (human, not fully specified; N-terminal NH2; C-terminal GGK-Biotin; native Cys changed to Ser).
T1 peptide: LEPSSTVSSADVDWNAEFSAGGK
Briefly: peptide ELISA. In a few lines: (§1)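 Plate-bound streptavidin captured biotinylated 16- to 20-mer LRRC25 ECD overlapping peptides (2 ug/mL), with biotinylated human LRRC25-His as positive control. Chimeric anti-LRRC25 antibodies at 20 nM, 45 min at 37° C in duplicate; detection by HRP anti-human IgG and TMB at A450 nm.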

Assay [2] concerns the target T2, LRRC25(36-55) biotin peptide (human, not fully specified; N-terminal NH2; C-terminal GGK-Biotin; native Cys changed to Ser).
T2 peptide: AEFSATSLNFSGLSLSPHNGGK
Briefly: peptide ELISA. In a few lines: as §1

The target of assay [3] is T3, LRRC25(51-69) biotin peptide (human, not fully specified; N-terminal acetyl; C-terminal GGK-Biotin).
T3 peptide: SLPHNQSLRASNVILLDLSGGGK
In words: peptide ELISA. In a few lines: as §1

Assay [4] deals with T4, LRRC25(66-85) biotin peptide (human, not fully specified; N-terminal acetyl; C-terminal GGK-Biotin).
T4 peptide: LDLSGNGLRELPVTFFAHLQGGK
In words: peptide ELISA. The gist of the method: as §1

Assay [5] concerns the target T5, LRRC25(81-100) biotin peptide (human, not fully specified; N-terminal acetyl; C-terminal GGK-Biotin).
T5 peptide: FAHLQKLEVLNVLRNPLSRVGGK
Briefly: peptide ELISA. In a few lines:
as §1

For assay [6], the target named is T6, LRRC25(96-115) biotin peptide (human, not fully specified; N-terminal acetyl; C-terminal GGK-Biotin; native Cys changed to Ser).
T6 construct: also called Biotin LRRC25 (96-115) peptide
T6 peptide: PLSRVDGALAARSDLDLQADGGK
In words: peptide ELISA. The gist of the method: as §1

For assay [7], the target named is T7, LRRC25(111-130) biotin peptide (human, not fully specified; N-terminal acetyl; C-terminal GGK-Biotin; native Cys changed to Ser).
T7 peptide: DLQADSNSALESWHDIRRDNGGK
Briefly: peptide ELISA. The gist of the method: as §1

Assay [8] addresses T8, LRRC25(126-145) biotin peptide (human, not fully specified; N-terminal acetyl; C-terminal GGK-Biotin; native Cys changed to Ser).
T8 peptide: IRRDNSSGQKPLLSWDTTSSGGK
In words: peptide ELISA. In a few lines:
as §1

The target in assay [9] is T9, LRRC25(141-159) biotin peptide (human, not fully specified; N-terminal acetyl; C-terminal GGK-Biotin; native Cys changed to Ser).
T9 peptide: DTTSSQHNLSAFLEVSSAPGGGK
In words: peptide ELISA. The gist of the method: as §1

Assay [10] has as its target T10, LRRC25(150-165) biotin peptide (human).
T10 peptide: Ac-SAFLEVSSAPGLASATGG-{Biotin′}
Briefly: peptide ELISA. In a few lines: as §1

The target of assay [11] is T11, His-tagged human LRRC25 extracellular domain protein, human LRRC25-His (human, UniProt Q8N386 21-165).
T11 construct: The entry holds the extracellular domain, a GSG linker and the His tag; also called LRRC25(ECD)-HIS
In words: ELISA, plate-immobilized antigen. In a few lines:
(§2)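 Wells coated overnight at 4 °C with 1 ug/mL antigen in PBS pH 7.4. Antibodies titrated from 500 nM in 3-fold steps in 1% skimmed milk/PBS, 1 h at room temperature, then HRP anti-human IgG; TMB read at A450 nm and EC50 taken from binding curves.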

The target of assay [12] is T12, biotinylated human LRRC25-His protein (human, UniProt Q8N386 21-165, biotinylated (sites not given)).
T12 construct: also called Biotin LRRC25-His; biotinylated LRRC25 protein
Briefly: ELISA, 20 nM antibody, biotinylated antigen on streptavidin plate. In a few lines:
as §1

Assay [13] has as its target T6, LRRC25(96-115) biotin peptide. Described as above. The gist of the method: as §1
In assay [14] the target is T13, His-tagged cynomolgus monkey LRRC25 extracellular domain protein, cyno LRRC25-His (cynomolgus monkey).
T13 construct: The entry holds the extracellular domain, a GSG linker and the His tag
In words: ELISA, antibody titrated on plate-immobilized Cyno LRRC25(ECD)-His, A450nm against -log [IgG] (M), right panel. As for the experimental part:
(§3) To establish the relative binding strengths of anti-LRRC25 antibodies against human LRRC25, and their cross-reactivity with cynomolgus monkey LRRC25, antibody binding curve analyses were performed and EC50 values against plate-immobilized recombinant human and cyno LRRC25 proteins were determined.
(§4) A typical ELISA was performed by coating overnight in PBS, pH 7.4, at 4° C. in high binding microtiter wells with 1 ug/mL/100 ul per well of human LRRC25-His or cyno LRRC25-His. An anti-human LRRC25 antibody (2A3, LS Bio, LS-C174039-100) and anti-HIS-HRP (Miltenyi Biotec; 130-092-783) served as coating controls for the human and cyno LRRC25 proteins, respectively. […] Anti-LRRC25 antibodies were added (100 ul per well) at 500 nM and serially diluted 3-fold in assay buffer (1% skimmed milk in PBS, pH 7.4). The plate was incubated with gentle agitation for 1 h at room temperature. The plate was washed 3× and HRP-conjugated secondary antibody in assay buffer added [100 ul per well; goat anti-human IgG (Jackson Immunoresearch, cat #715-035-150)], and the plate was incubated as before. Antibody bound to plate-immobilized LRRC25(ECD)-HIS was determined at A450 nm using HRP substrate (3,3′,5,5′-tetramethylbenzidine (TMB); eBioscience; 00-4201-56); 100 μl/well).

Assay [15] concerns the target T13, His-tagged cynomolgus monkey LRRC25 …. Briefly: ELISA, plate-immobilized antigen. In a few lines: as §2
Assay [16] concerns the target T5, LRRC25(81-100) biotin peptide. Briefly: ELISA, 20 nM antibody, biotinylated antigen on streptavidin plate. The gist of the method: as §1
For assay [17], the target named is T11, His-tagged human LRRC25 extracellular …. Briefly: ELISA, antibody titrated on plate-immobilized Human LRRC25(ECD)-His, A450nm against -log [IgG] (M), left panel. The procedure: as §3, §4

T13 sequence (chain, as listed by the source limits assumed): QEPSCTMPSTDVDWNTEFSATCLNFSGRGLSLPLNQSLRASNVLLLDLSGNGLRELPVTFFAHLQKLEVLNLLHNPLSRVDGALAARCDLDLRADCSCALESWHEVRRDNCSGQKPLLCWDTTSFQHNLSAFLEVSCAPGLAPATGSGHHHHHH
T11 sequence (Q8N386 other isoform, or with tags, fused parts or gaps): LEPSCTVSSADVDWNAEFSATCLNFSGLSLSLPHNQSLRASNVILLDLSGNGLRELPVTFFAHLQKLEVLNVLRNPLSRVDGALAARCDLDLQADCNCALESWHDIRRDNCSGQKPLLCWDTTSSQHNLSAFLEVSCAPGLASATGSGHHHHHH
T12 sequence (Q8N386 other isoform, or with tags, fused parts or gaps): as above

B1: anti-LRRC25 chimeric antibody 3A08 (antibody, human IgG4)
heavy: DVKLVESGGGLVKPGGSLKLSCAVSGFTLSSYAMSWVRQTPEKRLEWVASISRGGSTYYPDSVKGRFTISRDNGRNILNLQMSSLRSEDTAIYYCARGGGSTMITSLFAYWGQGTLVTVSAASTKGPSVFPLAPCSRSTSESTAALGCLVKDYFPEPVTVSWNSGALTSGVHTFPAVLQSSGLYSLSSVVTVPSSSLGTKTYTCNVDHKPSNTKVDKRVESKYGPPCPPCPAPEFLGGPSVFLFPPKPKDTLMISRTPEVTCVVVDVSQEDPEVQFNWYVDGVEVHNAKTKPREEQFNSTYRWSVLTVLHQDWLNGKEYKCKVSNKGLPSSIEKTISKAKGQPREPQVYTLPPSQEEMTKNQVSLTCLVKGFYPSDIAVEWESNGQPENNYKTTPPVLDSDGSFFLYSRLTVDKSRWQEGNVFSCSVMHEALHNHYTQKSLSLSLGK
light: DIVMTQAAFSNPVTLGTSASISCRSSKSLLHSNGITYLYWYLQKPGQSPQLLIYQMSNLASGVPDRFSSSGSGTDFTLRISRVEAEDVGVYYCAQNLELPFTFGSGTKLEIKRTVAAPSVFIFPPSDEQLKSGTASVVCLLNNFYPREAKVQWKVDNALQSGNSQESVTEQDSKDSTYSLSSTLTLSKADYEKHKVYACEVTHQGLSSPVTKSFNRGEC
notes: also called mAb 3A08
B1: the binding result in [1], in assay [2], in assay [3], in assay [4], in assay [5] and in [6] was “no binding (tested: 20 nM)” each time. The binding result in assay [7] was “no binding (tested: 20 nM)”; in assay [8], “no binding (tested: 20 nM)”; in assay [9], “no binding (tested: 20 nM)”; in assay [10], “no binding (tested: 20 nM)”; in assay [14], “no binding (tested: about 5e-7 M (-log [IgG] about 6.3))”. Also, the half-maximal effective concentration (EC50) in assay [11] amounted to 51.1 nM. The “absorbance (A450)” value in assay [12] was determined as 0.305 A450; in assay [13] it was 0.088 A450.

B2: anti-LRRC25 chimeric antibody 2D09 (antibody, human IgG4, V domains shown)
VH: QVTLKESGPGTVQPSQTLSLTCSFSGFSLSTSGMGVSWIRQSSGKGLEWLAHIYWDDDKRYNPSLKSRLTISKDTSSNQVFLRITSVDTADTATYYCARRPRDFYGGGHWYFDVWGAGTTVTVSS
VL: DVVMTQTPKSMSMSVGERVTLNCKASENVGTYVSWYQQKPEQSPKLLIYGASNRYTGVPDRFTGSGSATDFTLTISSMQAEDLADYHCGQSYNFPLTFGAGTKLELKR
notes: also called mAb 2D09; MAb 2D09
With B2, the concentration for a half-maximal effect (EC50) in [11] was 1.2 nM; in assay [15] it was 0.68 nM. Moreover, the entries for the “absorbance (A450)” value in [12], in assay [16] and in assay [13] were 2.5 A450, 0.676 A450 and 0.095 A450, respectively. Besides, the “fold lower assay signal than with the biotinylated LRRC25 protein” value in assay [16] was approximately 4 fold. Besides, the “EC50 (read off the curve)” value in assay [14] was approximately 0.7 nM; in [17] it was approximately 1 nM.

B3: anti-LRRC25 chimeric antibody 1E01 (antibody, human IgG4, V domains shown)
VH: DVQLVESGGGLVKPGGSLKLSCAASGFTFSNYAMSWVRQTPEKRLEWVASISRGGNTYYPDSVKGRFTISRDNARNILYLQMSSLRSEDTAIYYCTRGNYGSSLFAYWGQGTLVTVSA
VL: DIVLTQSPASLTVSLGQRATISCRASKSVSTSGYSYMHWYQQKPGQPPKLLIYLASNLESGVPARFSGSGSRTDFTLTIDPVEADDAATYYCQQNNEDPWTFGGGTKLEIKR
notes: also called mAb 1E01
Take B3: the binding result in assay [1], in [2], in assay [3], in assay [4], in assay [5] and in [7] was “no binding (tested: 20 nM)” each time. For the same molecule, the binding result in assay [8], in assay [9] and in assay [10] was “no binding (tested: 20 nM)” in each case. Moreover, the EC50 stood at 1.3 nM in assay [11] and 83.2 nM in assay [15]. Further, the entries for the “absorbance (A450)” value in assay [12] and in assay [13] were 1.7 A450 and 2.56 A450, respectively. In assay [17], the “EC50 (read off the curve)” value is approximately 1 nM.
